Tests used:
[1] = test system: cyclin A2, cyclin D1, cyclin D2, cyclin D3, cyclin E1, CDK4, CDK9, Oct4, Sox2, c-Myc, Lin28; assay: Western blotting of cell cycle regulators and pluripotency factors in MSCs; assay type: cell-based, human; settings: EpEX 3 μg/mL
Procedure: The proliferation of MSCs was examined by measuring doubling time. MSCs were treated with EpEX (3 μg/mL) for 24 and 48 h. Cell number was counted and then doubling time was calculated. MSCs were treated with EpEX (3 μg/mL) for the indicated times. After treatment, protein expression of cell cycle regulators (cyclin D1, cyclin D2, cyclin D3, cyclin E1, CDK4 and CDK9) and pluripotency factors (Oct4, Sox2, c-Myc, and Lin28) was examined by Western blotting.
Phospho-EGFR (Tyr845) was detected by Western blotting. […] After treatment, cell cycle progression was investigated by flow cytometry with PI staining. Fraction of cells in each phase (G1, S, G2/M) of the cell cycle was evaluated. Cells that expressed EGFR shRNA or shLuc were treated with EpEX for 18 h. After treatment, cell cycle progression was investigated by flow cytometry with PI staining. Fraction of cells in each phase (G1, S, G2/M) of the cell cycle was evaluated. […]
After treatment, the protein levels of total STAT3 and phospho-STAT3 (Tyr705) were examined by Western blotting. […] Fraction of cells in each phase (G1, S, G2/M) of the cell cycle was evaluated. […] Fraction of cells in each phase (G1, S, G2/M) of the cell cycle was evaluated. […]
The expression of let-7 was detected by qPCR. […] The expression of let-7 was detected by qPCR. […]

RUNX2 = RUNX2 gene expression by qPCR during osteo-induction; assay type: cell-based, human; settings: EpEX in osteogenetic medium
Procedure: Calcium precipitation was measured by Alizarin Red S (ARS) staining to probe the efficiency of osteogenesis. […] Quantification of osteogenesis, as measured by ARS staining, is shown for each group. MSCs were induced by osteogenetic medium and treated with EpEX at indicated doses. The gene expression of RUNX2 was examined by qPCR. […] ARS staining was performed to check the efficiency of osteogenesis. MSCs were pretreated with let-7 inhibitor and then treated with EpEX for 14 days during osteo-induction. ARS staining was performed to check the efficiency of osteogenesis. […] RUNX2 gene expression was measured by qPCR. MSCs were pretreated with let-7 inhibitor and induced by EpEX. RUNX2 gene expression was examined by qPCR. […] Upon EpEX stimulation, phosphorylation of EGFR-STAT3 signaling is induced and subsequently upregulates the level of Lin28 which inhibits let-7. […]
Total RNA was extracted using TRI reagent (Invitrogen, CA, USA), and 5 μg of total RNA was reverse transcribed using oligo (dT) primer (Fermentas, Glen Burnie, MD, USA) with SuperScript III reverse transcriptase (Invitrogen). Quantitative real time RT-PCR (qPCR) was performed on cDNA using the Light Cycler 480 SYBR Green I Master kit (Roche Applied Science, Indianapolis, IN) and the LightCycler480 System (Roche Applied Science). […]

B1: EpEX: extracellular domain of human EpCAM, 265 amino acids in length (SEQ ID NO: 2) (protein, listed as Homo sapiens)
chain: MAPPQVLAFGLLLAAATATFAAAQEECVCENYKLAVNCFVNNNRQCQCTSVGAQNTVICSKLAAKCLVMKAEMNGSKLGRRAKPEGALQNNDGLYDPDCDESGLFKAKQCNGTSMCWCVNTAGVRRTDKDTEITCSERVRTYWIIIELKHKAREKPYDSKSLRTALQKEITTRYQLDPKFITSILYENNVITIDLVQNSSQKTQNDVDIADVAYYFEKDVKGESLFHSKKMDLTVNGEQLDLDPGQTLIYYVDEKAPEFSMQGLK
- protein expression of cell cycle regulators (cyclin A2, D1, D2, D3, E1, CDK4, CDK9) [1]: significantly increased
- protein expression of pluripotency markers (Oct4, Sox2, c-Myc, Lin28) [1]: significantly increased
- RUNX2 transcript level (RUNX2): increased

— patent US20260125649A1, “MEDIUM COMPOSITION AND METHOD FOR CULTURING MESENCHYMAL STEM CELLS” (ACADEMIA SINICA, priority 2018, published 2026)
